Consider 14 molecules from patent US9346871B2, “Engineered CXCL12 alpha locked dimer polypeptide” (The Medical College of Wisconsin, priority 2008, dated 2016).

For one data set, the target named is T1, CXCL12-α (Homo sapiens, UniProt P48061).
T1 construct: made in house; host or cells: E. coli
Description: Binding of CXCR4 N-terminal p38 peptides to CXCL12-α. Particulars: read-out: apparent Kd.

In a further data set the test system is HIV-1. The following applies: compared with wild-type chemokine. From the text:
Certain strains of HIV (X4 or dual tropic) utilize CXCR4 as a co-receptor, and this interaction is critical for fusion of the viral and T cell membranes in the process of HIV entry.

Data set [1] is described as follows: Pulsed-field gradient NMR translational diffusion, CXCL12-α monomer-dimer equilibrium. The following applies: 10, 50 and 150 μM protein. It is filed as physicochemical. How it is done:
FIG. 1. […] The lines connecting the cysteines show where the intra- and intermolecular disulfide bonds are. […] Diffusion coefficients (Ds) of wild-type CXCL12 (black circles) in 20 mM sodium phosphate at pH 7.4 plotted versus chemokine concentration. […] D) N-terminal peptides corresponding to the first thirty-eight amino acids of CXCR4 are illustrated.

A further data set can be described thus: Heparin binding. From the text:
Further, in addition to binding CXCR4, CXCL12 also binds to heparin found in the extracellular matrix on cell surfaces. The inventors have shown that the CXCL12α2 locked dimer of the present invention also binds heparin. Amino acid substitutions in CXCL12, including K24S, K27S, or K24S/K27S can prevent heparin binding and increase the half-life of CXCL12 in vivo; therefore, similar mutations in CXCL12α2 would likely prevent heparin binding and increase the in vivo half-life of the dimer.

For the next data set, the target named is T2, CXCR4 (Homo sapiens, UniProt P61073).
T2 construct: a Ca^2+-flux assay on CXCR4-expressing THP-1 cells; host or cells: THP-1
Description: Ca2+-flux assay of CXCR4 activation in THP-1 cells. It is filed as cell-based. From the text: (§1) The Protein Data Bank (PDB), under accession numbers 2K01, 2K04, 2K03 and 2K05 contain coordinates for these structural models. Restraints employed for structure determination have been deposited in the Biological Magnetic Resonance Bank, accession numbers 15633, 15636, 15635 and 15637. […] THP-1 cells are a CXCR4-expressing monocyte leukemia cell line and were obtained from ATCC.
The inventors monitored activation of CXCR4 using THP-1 cells and a similar Ca^2+-flux assay.

A further data set concerns THP-1 cells. Description: Transwell chemotaxis assay of THP-1 cells. It is filed as cell-based.
From the text: FIG. 5. […] C) Schematic illustration of the bell-shaped profile for CXCL12-α-mediated chemotaxis arising from changes in relative concentrations of chemokine monomer and dimer.
as §1

Setting [2] is: Ca2+-flux, CXCR4-expressing THP-1 cells.

Where a chain is given by its changes, count along the chain named. In names and notes the source's numbering stands. Entries after “also recorded” stand apart in the source; their conditions may differ. Read-outs that look alike come from different tables or passages of the source.

T2 sequence (P61073 whole entry): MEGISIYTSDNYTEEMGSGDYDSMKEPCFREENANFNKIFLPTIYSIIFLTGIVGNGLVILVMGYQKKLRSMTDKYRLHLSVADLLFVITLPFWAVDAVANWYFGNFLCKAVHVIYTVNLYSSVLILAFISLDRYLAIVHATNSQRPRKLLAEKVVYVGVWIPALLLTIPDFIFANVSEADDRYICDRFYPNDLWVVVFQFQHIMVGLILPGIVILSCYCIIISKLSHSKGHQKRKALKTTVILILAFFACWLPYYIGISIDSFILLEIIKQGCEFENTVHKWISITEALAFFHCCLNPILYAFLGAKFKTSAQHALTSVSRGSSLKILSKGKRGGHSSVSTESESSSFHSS
T1 sequence (P48061 22-89 limits assumed): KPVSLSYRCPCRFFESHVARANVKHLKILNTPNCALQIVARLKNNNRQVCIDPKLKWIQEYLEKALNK

Turning to `CC[C@H](C)[C@H](NC(=O)CNC(=O)[C@H](CCC(=O)O)NC(=O)[C@H](CCSC)NC(=O)[C@H](CO)NC(=O)CN)C(=O)N[C@@H](CO)C(=O)N[C@H](C(=O)N[C@@H](Cc1ccc(OS(=O)(=O)O)cc1)C(=O)N[C@H](C(=O)N[C@@H](CO)C(=O)N[C@@H](CC(=O)O)C(=O)N[C@@H](CC(N)=O)C(=O)N[C@@H](Cc1ccc(OS(=O)(=O)O)cc1)C(=O)N[C@H](C(=O)N[C@@H](CCC(=O)O)C(=O)N[C@@H](CCC(=O)O)C(=O)N[C@@H](CCSC)C(=O)NCC(=O)N[C@@H](CO)C(=O)NCC(=O)N[C@@H](CC(=O)O)C(=O)N[C@@H](Cc1ccc(OS(=O)(=O)O)cc1)C(=O)N[C@@H](CC(=O)O)C(=O)N[C@@H](CO)C(=O)N[C@@H](CCSC)C(=O)N[C@@H](CCCCN)C(=O)N[C@@H](CCC(=O)O)C(=O)N1CCC[C@H]1C(=O)N[C@@H](C)C(=O)N[C@@H](Cc1ccccc1)C(=O)N[C@@H](CCCNC(=N)N)C(=O)N[C@@H](CCC(=O)O)C(=O)N[C@@H](CCC(=O)O)C(=O)N[C@@H](CC(N)=O)C(=O)N[C@@H](C)C(=O)N[C@@H](CC(N)=O)C(=O)N[C@@H](Cc1ccccc1)C(=O)N[C@@H](CC(N)=O)C(=O)N[C@@H](CCCCN)C(=O)O)[C@@H](C)O)[C@@H](C)O)[C@@H](C)CC` [p38-sY3], the Kd on CXCL12-α came to 200 ± 200 nM.
As to “CXCL12-α2: covalently locked dimer comprising two CXCL12 L36C/A65C sequences (SEQ ID NO: 1)”, the “predicted inhibition of HIV-1 entry into human T cells” value in the data set with HIV-1 is listed as “more effective at lower concentrations”. Further, the “diffusion coefficient Ds” value in data set [1] is 1.08-1.09 ×10^−6 cm^2s^−1. In addition, the heparin binding result in the data set “Heparin binding” is “binds heparin”. Besides, in the data set with CXCR4 (detection of secondary messenger calcium), the CXCR4 functional character result is “partial CXCR4 agonist”. Also, the “chemotactic response” value in the data set on THP-1 cells is reported as “failed to attract cells; also recorded: does not chemoattract THP-1 cells”.

B1: R20A: wild-type CXCL12-α with R20 replaced by alanine (protein)
chain: KPVSLSYRCPCRFFESHVAAANVKHLKILNTPNCACQIVARLKNNNRQVCIDPKLKWIQEYLEKCLNK
What is called EC50 is the concentration giving half of the maximal effect. On to B1, for which, in the data set with CXCR4 (setting [2]), a half-maximal effect (EC50) was put at 4.3 ± 0.6 nM and the “EC50, CXCR4 activation” value is “no change in EC50”.

B2: H25R: dimerization-impaired, preferentially monomeric CXCL12-α variant (protein)
chain: B1 chain with A20R, H25R
modifications: ends and bridges not checked
notes: dimerization-impaired, preferentially monomeric CXCL12-α variant
In turn, B2 gave a concentration giving a half-maximal response (EC50) with CXCR4 (setting [2]) of 5.1 ± 0.9 nM. In addition, the “chemotactic response” value with THP-1 cells (listed as CXCL12-α (H25R)) was “induces chemotaxis over a broader range”; with THP-1 cells (listed as CXCL12-α(H25R)), “promotes cell migration much more strongly than the wild-type chemokine at higher concentrations”.

B3: K27E: CXCL12-α mutant, glutamic acid at K27 (protein)
chain: B1 chain with A20R, K27E
In the case of B3, in the data set with CXCR4 (setting [2]), it took 16.8 nM to reach a half-maximal effect (EC50).

B4: E60A: CXCL12-α mutant E60A (protein)
chain: B1 chain with A20R, E60A
For B4, in the data set with CXCR4 (setting [2]), the EC50 is 4.1 ± 0.1 nM.

B5: R41A: CXCL12-α mutant R41A (protein)
chain: B1 chain with A20R, R41A
The molecule B5 showed a concentration giving a half-maximal response (EC50) with CXCR4 (setting [2]) of 4.3 ± 0.9 nM.

B6: E63A: CXCL12-α mutant E63A (protein)
chain: B1 chain with A20R, E63A
On to B6, for which the response with CXCR4 (setting [2]) was half-maximal at 3.7 ± 0.8 nM (EC50).

B7: K64A: CXCL12-α mutant K64A (protein)
chain: B1 chain with A20R, K64A
As to B7, the response in the data set with CXCR4 (setting [2]) was half-maximal at 5 ± 1.1 nM (EC50).

B8: K27A: CXCL12-α mutant, alanine at K27 (protein)
chain: B1 chain with A20R, K27A
Molecule B8 had an EC50 with CXCR4 (setting [2]) of 10.1 nM. This EC50 lies about 2-fold higher than the previous one.

B9: V39A: CXCL12-α mutant V39A (protein)
chain: B1 chain with A20R, V39A
In the case of B9, the concentration giving a half-maximal response (EC50) in the data set with CXCR4 (setting [2]) was found to be 27.1 nM.

B10: V49A: CXCL12-α mutant V49A (protein)
chain: B1 chain with A20R, V49A
In the data set with CXCR4 (setting [2]), B10 registered a 50% effective concentration (EC50) of 8.6 ± 2.4 nM.

B11: R47E: CXCL12-α mutant, arginine 47 replaced by glutamic acid (protein)
chain: B1 chain with A20R, R47E
Take B11: in the data set with CXCR4 (setting [2]), the concentration for a half-maximal effect (EC50) came out at 654 nM.

B12: R47A: CXCL12-α mutant R47A (protein)
chain: B1 chain with A20R, R47A
The molecule B12 yielded an EC50 with CXCR4 (setting [2]) of 14.1 nM.
